T1: human B7H3 (CD276) on the cell surface (human, UniProt Q5ZPR3 29-534)
T1 construct: B7H3 on A375 and other B7H3-positive or transfected cells
T1 sequence: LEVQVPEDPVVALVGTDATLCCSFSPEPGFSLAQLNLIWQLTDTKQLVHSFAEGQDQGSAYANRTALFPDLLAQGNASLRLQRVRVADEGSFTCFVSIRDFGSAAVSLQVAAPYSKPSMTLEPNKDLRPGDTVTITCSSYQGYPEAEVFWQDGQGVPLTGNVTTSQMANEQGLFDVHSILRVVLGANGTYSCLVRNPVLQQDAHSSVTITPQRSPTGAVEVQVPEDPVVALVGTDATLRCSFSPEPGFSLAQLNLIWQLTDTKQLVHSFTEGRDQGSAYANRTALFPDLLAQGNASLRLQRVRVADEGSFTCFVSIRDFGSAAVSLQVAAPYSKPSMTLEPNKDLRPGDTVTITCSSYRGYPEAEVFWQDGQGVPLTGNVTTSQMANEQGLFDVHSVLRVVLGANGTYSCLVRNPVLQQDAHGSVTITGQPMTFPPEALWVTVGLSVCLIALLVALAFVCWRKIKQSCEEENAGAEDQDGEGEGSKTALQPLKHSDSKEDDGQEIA

B1: cx5187 (bispecific antibody)
chain 1: EVQLVESGGGEVQPGGSLRLSCAASGFSFSSNVMMWVRQAPGKGLEWVSTIYSSGTGTFYAESVKGRFTISRDNAKNTLYLQMSSLRPEDTAVYYCATSGPVRGWGPRSQGTLVTVKPPGGGGDKTHTCPPCPAPGGPSVFLFPPKPKDTLMISRTPEVTCVVVDVSHEDPEVKFNWYVDGVEVHNAKTKPREEQYNSTYRVVSVLTVLHQDWLNGKEYKCKVSNKALPAPIEKTISKAKGQPREPQVYTLPPCRDELTKNQVSLWCLVKGFYPSDIAVEWESNGQPENNYKTTPPVLDSDGSFFLYSKLTVDKSRWQQGNVFSCSVMHEALHNHYTQKSLSLSPTGGGGGSGGGGGSGGGGGSEVQLVESGGGLVQPGGSLRLSCAASGFTFNTYAMNWVRQAPGKCLEWVARIRSKYNNYATYYADSVKGRFTISRDDAKNTLYLQMSSLRAEDTAVYYCVRHGNFGNSYVSWFAYWGQGTLVTVKPGGGGEVQLVESGGGEVQPGGSLRLSCAASGFTFSSYHMSWFRQAPGKQREPVATSHHGGTTNYAGSVKGRFTISRDNAKNTVYLQMNTLRAEDTAVYYCKADHGYQGRGYWGQGTLVTVKP
chain 2: DKTHTCPPCPAPGGPSVFLFPPKPKDTLMISRTPEVTCVVVDVSHEDPEVKFNWYVDGVEVHNAKTKPREEQYNSTYRVVSVLTVLHQDWLNGKEYKCKVSNKALPAPIEKTISKAKGQPREPQVCTLPPSRDELTKNQVSLSCAVKGFYPSDIAVEWESNGQPENNYKTTPPVLDSDGSFFLVSKLTVDKSRWQQGNVFSCSVMHEALHNRYTQKSLSLSPTGGGGGSGGGGGSGGGGGSQAVVTQEPSLTVSPGGTVTLTCGSSTGAVTTSNYANWVQQKPGQAFRGLIGGTNKRAPGVPARFSGSLLGGKAALTISGAQPEDEADYYCALWYSNHWVFGCGTKLEIKGGGGEVQLLESGGGEVQPGGSLRLSCAASGFSFSINAMGWYRQAPGKRREFVAAIESGRNTVYAESVKGRFTISRDNAKNTVYLQMSSLRAEDTAVYYCGLLKGNRVVSPSVAYWGQGTLVTVKP
B2: cx5823 (bispecific antibody)
chain 1: EVQLVESGGGEVQPGGSLRLSCAASGFSFSSNVMMWVRQAPGKGLEWVSTIYSSGTGTFYAESVKGRFTISRDNAKNTLYLQMSSLRPEDTAVYYCATSGPVRGWGPRSQGTLVTVKPPGGGGDKTHTCPPCPAPGGPSVFLFPPKPKDTLMISRTPEVTCVVVDVSHEDPEVKFNWYVDGVEVHNAKTKPREEQYNSTYRVVSVLTVLHQDWLNGKEYKCKVSNKALPAPIEKTISKAKGQPREPQVYTLPPCRDELTKNQVSLWCLVKGFYPSDIAVEWESNGQPENNYKTTPPVLDSDGSFFLYSKLTVDKSRWQQGNVFSCSVMHEALHNHYTQKSLSLSPGGGGGGSGGGGGSGGGGGSEVQLVESGGGLVQPGGSLRLSCAASGFTFNTYAMNWVRQAPGKCLEWVARIRSKYNNYATYYADSVKGRFTISRDDAKNTLYLQMSSLRAEDTAVYYCVRHGNFGNSYVSWFAYWGQGTLVTVKPGGGGEVQLVESGGGEVQPGGSLRLSCAASGFTFSSYHMSWFRQAPGKQRELVATSHHGGTTNYAGSVKGRFTISRDNAKNTVYLQMNTLRAEDTAVYYCKADHGYQGRGYWGQGTLVTVKP
chain 2: DKTHTCPPCPAPGGPSVFLFPPKPKDTLMISRTPEVTCVVVDVSHEDPEVKFNWYVDGVEVHNAKTKPREEQYNSTYRVVSVLTVLHQDWLNGKEYKCKVSNKALPAPIEKTISKAKGQPREPQVCTLPPSRDELTKNQVSLSCAVKGFYPSDIAVEWESNGQPENNYKTTPPVLDSDGSFFLVSKLTVDKSRWQQGNVFSCSVMHEALHNRYTQKSLSLSPGGGGGGSGGGGGSGGGGGSQAVVTQEPSLTVSPGGTVTLTCGSSTGAVTTSNYANWVQQKPGQAFRGLIGGTNKRAPGVPARFSGSLLGGKAALTISGAQPEDEADYYCALWYSNHWVFGCGTKLEIKGGGGEVQLLESGGGEVQPGGSLRLSCAASGFSFSINAMGWYRQAPGKRREFVAAIESGRNTVYAESVKGRFTISRDNAKNTVYLQMSSLRAEDTAVYYCGLLKGNRVVSPSVAYWGQGTLVTVKP
B3: cx5873 (bispecific antibody)
chain 1: DKTHTCPPCPAPGGPSVFLFPPKPKDTLMISRTPEVTCVVVDVSHEDPEVKFNWYVDGVEVHNAKTKPREEQYNSTYRVVSVLTVLHQDWLNGKEYKCKVSNKALPAPIEKTISKAKGQPREPQVYTLPPCRDELTKNQVSLWCLVKGFYPSDIAVEWESNGQPENNYKTTPPVLDSDGSFFLYSKLTVDKSRWQQGNVFSCSVMHEALHNHYTQKSLSLSPTGGGGGSGGGGGSGGGGGSEVQLVESGGGLVQPGGSLRLSCAASGFTFNTYAMNWVRQAPGKCLEWVARIRSKYNNYATYYADSVKGRFTISRDDAKNTLYLQMSSLRAEDTAVYYCVRHGNFGNSYVSWFAYWGQGTLVTVKPGGGGEVQLVESGGGEVQPGGSLRLSCAASGFTFSSYHMSWFRQAPGKQREPVATSHHGGTTNYAGSVKGRFTISRDNAKNTVYLQMNTLRAEDTAVYYCKADHGYQGRGYWGQGTLVTVKP
chain 2: DKTHTCPPCPAPGGPSVFLFPPKPKDTLMISRTPEVTCVVVDVSHEDPEVKFNWYVDGVEVHNAKTKPREEQYNSTYRVVSVLTVLHQDWLNGKEYKCKVSNKALPAPIEKTISKAKGQPREPQVCTLPPSRDELTKNQVSLSCAVKGFYPSDIAVEWESNGQPENNYKTTPPVLDSDGSFFLVSKLTVDKSRWQQGNVFSCSVMHEALHNRYTQKSLSLSPTGGGGGSGGGGGSGGGGGSQAVVTQEPSLTVSPGGTVTLTCGSSTGAVTTSNYANWVQQKPGQAFRGLIGGTNKRAPGVPARFSGSLLGGKAALTISGAQPEDEADYYCALWYSNHWVFGCGTKLEIKGGGGEVQLLESGGGEVQPGGSLRLSCAASGFSFSINAMGWYRQAPGKRREFVAAIESGRNTVYAESVKGRFTISRDNAKNTVYLQMSSLRAEDTAVYYCGLLKGNRVVSPSVAYWGQGTLVTVKP
notes: first-named used
B4: cx5965 (bispecific antibody)
chain 1: EVQLVESGGGEVQPGGSLRLSCAASGFSFSSNVMMWVRQAPGKGLEWVSTIYSSGTGTFYAESVKGRFTISRDNAKNTLYLQMSSLRPEDTAVYYCATSGPVRGWGPRSQGTLVTVKPPGGGGDKTHTCPPCPAPGGPSVFLFPPKPKDTLMISRTPEVTCVVVDVSHEDPEVKFNWYVDGVEVHNAKTKPREEQYNSTYRVVSVLTVLHQDWLNGKEYKCKVSNKALPAPIEKTISKAKGQPREPQVYTLPPCRDELTKNQVSLWCLVKGFYPSDIAVEWESNGQPENNYKTTPPVLDSDGSFFLYSKLTVDKSRWQQGNVFSCSVMHEALHNHYTQKSLSLSPTGGGGGSGGGGGSGGGGGSEVQLVESGGGLVQPGGSLRLSCAASGFTFNTYAMNWVRQAPGKCLEWVARIRSKYNNYATYYADSVKGRFTISRDDAKNTLYLQMSSLRAEDTAVYYCVRHGNFGNSYVSWFAYWGQGTLVTVKP
chain 2: DKTHTCPPCPAPGGPSVFLFPPKPKDTLMISRTPEVTCVVVDVSHEDPEVKFNWYVDGVEVHNAKTKPREEQYNSTYRVVSVLTVLHQDWLNGKEYKCKVSNKALPAPIEKTISKAKGQPREPQVCTLPPSRDELTKNQVSLSCAVKGFYPSDIAVEWESNGQPENNYKTTPPVLDSDGSFFLVSKLTVDKSRWQQGNVFSCSVMHEALHNRYTQKSLSLSPTGGGGGSGGGGGSGGGGGSQAVVTQEPSLTVSPGGTVTLTCGSSTGAVTTSNYANWVQQKPGQAFRGLIGGTNKRAPGVPARFSGSLLGGKAALTISGAQPEDEADYYCALWYSNHWVFGCGTKLEIKGGGGEVQLLESGGGEVQPGGSLRLSCAASGFSFSINAMGWYRQAPGKRREFVAAIESGRNTVYAESVKGRFTISRDNAKNTVYLQMSSLRAEDTAVYYCGLLKGNRVVSPSVAYWGQGTLVTVKP
notes: first-named used

Tests used:
[1] = target: T2, CD3 on the surface of human T cells (human, UniProt P07766 23-207); assay: flow cytometry on isolated T cells, anti-human Fc secondary
T2 construct: whole, on cells; Part of the CD3/TCR complex on cells; also called CD3 epsilon
T2 sequence (P07766 23-207): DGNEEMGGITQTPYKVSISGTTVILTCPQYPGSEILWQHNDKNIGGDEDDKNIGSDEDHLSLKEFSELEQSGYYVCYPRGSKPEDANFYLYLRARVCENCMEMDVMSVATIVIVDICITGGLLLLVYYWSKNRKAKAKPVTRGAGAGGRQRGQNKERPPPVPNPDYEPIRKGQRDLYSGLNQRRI
Description: (§1) Binding of exemplary multispecific constructs containing an antigen-binding domain directed against B7H3 were assessed for binding to B7H3 positive A375 tumor cells or primary T-cells. The constructs were generated containing antigen-binding domain(s) that were either sdAbs or a FABs, and that were positioned either only N-terminal to the Fc or both N-terminal to the Fc and C-terminal to the anti-CD3 binding domain (see FIGS. 30A and 30C and Table E5). Among the various formats of constructs tested included: sdAb-Fc-dsFV-sdAb (cx3072, cx5952) sdAb-Fc-FV (cx6079), sdAb-Fc-dsFV (cs6080, cx6081), MAB-FV (cx5067) and MAB-dsFV (cx6083, cx6084), where the FV represents the anti-CD3 binding domain composed of VH and VL domain pairs and “ds” notes disulfide stabilized via an engineered interdomain disulfide bond.
(§2) Binding was assessed as described above via flow cytometry using a fluorophore-conjugated anti-human Fc secondary antibody. cx3072 bound to A375 cells with high affinity (FIG. 31A) but not to isolated T-cells (FIG. 31B). […] The B7H3 -targeting sdAb containing constructs (cx5952, cx6079, cx6080, and cx6081) bound to B7H3 positive cells with similar affinities (depicted in FIG. 31E), with cx5952 displaying higher maximal binding. cx6079, cx6080 and cx6081 contain two identical B7H3-targeting sdAbs, whereas cx5952, and cx3072 contain two distinct B7H3-targeting sdAb that bind different epitopes. The MAB-FV, cx5067, contains two identical B7H3-targeting FAB domains.

[2] = target: T1, human B7H3 (CD276) on the cell surface; assay: flow cytometry on A375 cells (B7H3+), anti-human Fc secondary
Description: as §1, §2

Row | Binder | binding result [1] | binding result [2]
1 | B1 | no binding | binds
2 | B2 | no binding | binds
3 | B3 | no binding | binds
4 | B4 | no binding | binds
